Assay results as given in patent US20080241152A1 (VEGENICS, published 2008).

Key:
[1] = molecular target: T1, KDR (VEGFR-2) expressed on porcine aortic endothelial (PAE) cells (UniProt P35968 20-1356, limits assumed); experiment: Scatchard analysis (125I-labelled ligand; receptor format not given, PAE/VEGFR-2 cells in the same example)
T1 construct: whole, on cells; KDR is the name of the human receptor; also called KDR/Flk-1; PAE-KDR cells
Experimental: To study receptor binding, PAE/VEGFR-2 and PAE/VEGFR-3 cells were seeded into 24-well tissue culture plates (Nunclon), which had been coated with 2% gelatin in PBS. […] The binding was allowed to proceed at room temperature for 90 minutes. The plates were then transferred onto ice and washed three times with ice-cold PBS containing 0.1% BSA. The cells were then lysed in 1 M NaOH, the lysates were collected, and the radioactivity was measured using a γ-counter.

[2] = molecular target: the molecule itself; experiment: chemical crosslinking, SDS-PAGE (homodimer)

T1 sequence (P35968 20-1356 limits assumed): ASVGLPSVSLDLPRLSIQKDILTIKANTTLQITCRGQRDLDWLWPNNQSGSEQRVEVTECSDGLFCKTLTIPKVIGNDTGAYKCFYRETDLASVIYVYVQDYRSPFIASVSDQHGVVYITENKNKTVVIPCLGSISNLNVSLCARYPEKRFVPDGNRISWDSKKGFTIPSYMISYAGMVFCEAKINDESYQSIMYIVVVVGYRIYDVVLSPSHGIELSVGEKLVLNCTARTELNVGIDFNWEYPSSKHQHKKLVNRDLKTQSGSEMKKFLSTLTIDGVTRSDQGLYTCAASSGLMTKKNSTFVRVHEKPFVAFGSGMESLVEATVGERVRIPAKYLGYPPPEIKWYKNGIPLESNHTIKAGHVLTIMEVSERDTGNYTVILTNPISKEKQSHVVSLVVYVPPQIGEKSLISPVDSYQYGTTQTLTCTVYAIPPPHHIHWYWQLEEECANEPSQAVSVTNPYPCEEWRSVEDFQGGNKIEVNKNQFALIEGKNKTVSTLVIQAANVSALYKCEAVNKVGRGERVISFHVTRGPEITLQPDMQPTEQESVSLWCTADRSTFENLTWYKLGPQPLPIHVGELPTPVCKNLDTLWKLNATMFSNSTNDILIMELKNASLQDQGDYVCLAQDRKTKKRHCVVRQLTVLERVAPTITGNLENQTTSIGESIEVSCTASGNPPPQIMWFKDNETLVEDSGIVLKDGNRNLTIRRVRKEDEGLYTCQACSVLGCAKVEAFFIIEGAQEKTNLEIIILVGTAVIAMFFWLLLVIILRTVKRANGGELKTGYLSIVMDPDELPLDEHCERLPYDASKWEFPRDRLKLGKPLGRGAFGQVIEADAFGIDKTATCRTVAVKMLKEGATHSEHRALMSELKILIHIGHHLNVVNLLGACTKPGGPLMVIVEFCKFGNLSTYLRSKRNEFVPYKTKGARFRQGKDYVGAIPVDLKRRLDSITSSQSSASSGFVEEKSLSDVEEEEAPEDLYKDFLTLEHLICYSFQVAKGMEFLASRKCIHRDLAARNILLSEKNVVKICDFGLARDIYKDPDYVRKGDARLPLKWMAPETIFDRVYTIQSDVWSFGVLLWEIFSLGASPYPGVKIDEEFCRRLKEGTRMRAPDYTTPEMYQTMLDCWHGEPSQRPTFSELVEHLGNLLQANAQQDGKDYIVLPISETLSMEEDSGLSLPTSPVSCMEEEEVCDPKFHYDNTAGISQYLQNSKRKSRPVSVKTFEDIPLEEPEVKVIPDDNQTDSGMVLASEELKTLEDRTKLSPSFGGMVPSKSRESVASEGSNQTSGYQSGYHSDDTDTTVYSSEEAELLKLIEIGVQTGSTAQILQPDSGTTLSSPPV

B1: VEGF-C ΔNΔCHis (ligand)
chain: TEETIKFAAAHYNTEILKSIDNEWRKTQCMPREVCIDVGKEFGVATNTFFKPPCVSVYRCGGCCNSEGLQCMNTSTSYLSKTLFEITVPLSQGPKPVTISFANHTSCRCMSKLDVYRQVHSIIHHHHHH
modifications: 125I label in the tracer used for Scatchard and competition assays
notes: also called VEGF-C ΔCΔNHis; recombinantly-matured VEGF-C
With B1 the Kd [1] was 0.41 nM and the binding result [2] was “binds”.
